Series [1] deals with His-tagged YvmB protein (MarR-like regulator YvmB, renamed PchR) (B. subtilis). Put plainly: SEC; purified YvmB^His-tag fractionated on a Superdex 200 gel-filtration column; major peak with an apparent molecular mass compared with the 19.2 kDa polypeptide; no effector added. (SEC sorts molecules by how far they enter the pores of the column.)
The target in series [2] is T1, YvmB-His6 (PchR) (Bacillus subtilis (BSB1, trp+ 168 derivative?)) (UniProt P40762).
T1 sequence: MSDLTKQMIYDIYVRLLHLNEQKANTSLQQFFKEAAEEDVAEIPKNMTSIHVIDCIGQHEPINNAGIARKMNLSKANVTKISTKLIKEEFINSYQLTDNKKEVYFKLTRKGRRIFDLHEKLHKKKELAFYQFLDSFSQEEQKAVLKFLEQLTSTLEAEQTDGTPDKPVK
Description: EMSA. The conditions noted are these: apparent Kd; EMSA: 1x = 20 mM Tris pH 8, 100 mM KCl, 0.5 mM DTT, 5 mM MgCl2, 0.05 mg/ml BSA, 0.05 mg/ml poly(dIdC) (from 5x buffer); 50 ng Cy5 DNA in 20 uL; 20 min at 30 C …. In general terms: In EMSA bound probe runs differently from free probe, usually more slowly.

The target of series [3] is T2, YvmB-His6 (PchR) (Bacillus subtilis (BSB1, trp+ 168 …, UniProt P40762 1-169)).
T2 sequence: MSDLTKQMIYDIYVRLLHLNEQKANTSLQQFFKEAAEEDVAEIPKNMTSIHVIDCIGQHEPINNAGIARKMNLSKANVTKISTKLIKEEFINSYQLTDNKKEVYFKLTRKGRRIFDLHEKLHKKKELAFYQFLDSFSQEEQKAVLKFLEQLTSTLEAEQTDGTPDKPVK
Put plainly: EMSA; one complex; apparent Kd; EMSA: 1x = 20 mM Tris pH 8, 100 mM KCl, 0.5 mM DTT, 5 mM MgCl2, 0.05 mg/ml BSA, 0.05 mg/ml poly(dIdC) (from 5x buffer); 50 ng Cy5 DNA in 20 uL; 20 min at 30 C. The conditions noted are these: protein: recombinant; tags: C-terminal His6; chain copies: 2; label: 5' Cy5.

Series [4] concerns the target T2, YvmB-His6 (PchR). Put plainly: EMSA; two complexes; EMSA: 1x = 20 mM Tris pH 8, 100 mM KCl, 0.5 mM DTT, 5 mM MgCl2, 0.05 mg/ml BSA, 0.05 mg/ml poly(dIdC) (from 5x buffer); 50 ng Cy5 DNA in 20 uL; 20 min at 30 C. The conditions noted are these: protein: recombinant; tags: C-terminal His6; chain copies: 2; label: 5' Cy5.

In general, stoichiometry N refers to the number of molecules, sites or subunits per partner or assembly. For the molecule “His-tagged YvmB protein (MarR-like regulator YvmB, renamed PchR) (natural protein)”, the stoichiometry N in series [1] was 2.

Consider P-yisI probe, for which the Kd in series [2] stood at 2.5 nM.

B1: P1 probe (yvmB-yvmC intergenic, palindrome I) (dsDNA)
DNA 1: TTCCAAATGTTTTTTAAGATTTTAATAATCATTTTCAATACCCATATCATGATAAATGTTTACTAGTAAACATTAGTCATTTTATCCCTTTTCCTTCCAAACGTCAATAT
DNA 2: ATATTGACGTTTGGAAGGAAAAGGGATAAAATGACTAATGTTTACTAGTAAACATTTATCATGATATGGGTATTGAAAATGATTATTAAAATCTTAAAAAACATTTGGAA
For the molecule B1, in series [3], the Kd stood at 5 nM.

B2: P2 probe (yvmB-yvmC intergenic, palindrome II) (dsDNA)
DNA 1: CCAACAATTGACAACGAAAACAAGAAAAGATAAAATAAAATTGTTCACCAGTAAACGATTTGTTTTATTGTTTCATCGTAAACTATTATTCCTAAGAAAGAAGGTAGCCT
DNA 2: AGGCTACCTTCTTTCTTAGGAATAATAGTTTACGATGAAACAATAAAACAAATCGTTTACTGGTGAACAATTTTATTTTATCTTTTCTTGTTTTCGTTGTCAATTGTTGG
As to B2, the binding result in series [4] is given as “binds”.

Source of the values: paper PMC4992311, “The MarR-like protein PchR (YvmB) regulates expression of genes involved in pulcherriminic acid biosynthesis and in the initiation of sporulation in Bacillus subtilis”.
